Legend:
[1] = target: T1, MLO-Y4 cell surface proteins (Mus musculus, UniProt Q791V5); experiment: Crosslinking/co-immunoprecipitation/mass spectrometry (TMT quantitative proteomics) to identify irisin receptors; assay type: binding; details: co-precipitated protein Mteh2 (MTCH2_MOUSE)
T1 construct: endogenous in cells; host or cells: MLO-Y4
T1 sequence (Q791V5 1-303): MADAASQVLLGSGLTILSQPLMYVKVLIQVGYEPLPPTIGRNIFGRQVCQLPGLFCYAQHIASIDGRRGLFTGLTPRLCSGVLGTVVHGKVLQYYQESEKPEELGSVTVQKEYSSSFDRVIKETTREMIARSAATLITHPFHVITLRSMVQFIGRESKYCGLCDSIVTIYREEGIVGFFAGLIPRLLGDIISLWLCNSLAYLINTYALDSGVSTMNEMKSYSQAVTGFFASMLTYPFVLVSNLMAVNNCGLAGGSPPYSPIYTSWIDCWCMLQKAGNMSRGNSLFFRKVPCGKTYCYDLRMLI
In short: (§1)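 Mouse MLO-Y4 cells were switched to serum-free FreeStyle medium for 4 h, chilled, then exposed to 10 nM His-tagged irisin (or adipsin as control) for 20 min. Cells were crosslinked with 1.5 mM DTSSP (30 min, ice), and bound proteins were pulled down on Ni-NTA and eluted with 250 mM imidazole. Eluates were separated by SDS-PAGE, trypsin-digested in gel, TMT 6-plex labelled and quantified by MS3-based LC-MS/MS on an Orbitrap Fusion Lumos.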

[2] = target: T2, MLO-Y4 cell surface proteins (Mus musculus, UniProt Q9Z138); experiment: as above; assay type: binding; details: co-precipitated protein Ror2 (ROR2_MOUSE)
T2 construct: endogenous in cells; host or cells: MLO-Y4
T2 sequence (Q9Z138 34-944): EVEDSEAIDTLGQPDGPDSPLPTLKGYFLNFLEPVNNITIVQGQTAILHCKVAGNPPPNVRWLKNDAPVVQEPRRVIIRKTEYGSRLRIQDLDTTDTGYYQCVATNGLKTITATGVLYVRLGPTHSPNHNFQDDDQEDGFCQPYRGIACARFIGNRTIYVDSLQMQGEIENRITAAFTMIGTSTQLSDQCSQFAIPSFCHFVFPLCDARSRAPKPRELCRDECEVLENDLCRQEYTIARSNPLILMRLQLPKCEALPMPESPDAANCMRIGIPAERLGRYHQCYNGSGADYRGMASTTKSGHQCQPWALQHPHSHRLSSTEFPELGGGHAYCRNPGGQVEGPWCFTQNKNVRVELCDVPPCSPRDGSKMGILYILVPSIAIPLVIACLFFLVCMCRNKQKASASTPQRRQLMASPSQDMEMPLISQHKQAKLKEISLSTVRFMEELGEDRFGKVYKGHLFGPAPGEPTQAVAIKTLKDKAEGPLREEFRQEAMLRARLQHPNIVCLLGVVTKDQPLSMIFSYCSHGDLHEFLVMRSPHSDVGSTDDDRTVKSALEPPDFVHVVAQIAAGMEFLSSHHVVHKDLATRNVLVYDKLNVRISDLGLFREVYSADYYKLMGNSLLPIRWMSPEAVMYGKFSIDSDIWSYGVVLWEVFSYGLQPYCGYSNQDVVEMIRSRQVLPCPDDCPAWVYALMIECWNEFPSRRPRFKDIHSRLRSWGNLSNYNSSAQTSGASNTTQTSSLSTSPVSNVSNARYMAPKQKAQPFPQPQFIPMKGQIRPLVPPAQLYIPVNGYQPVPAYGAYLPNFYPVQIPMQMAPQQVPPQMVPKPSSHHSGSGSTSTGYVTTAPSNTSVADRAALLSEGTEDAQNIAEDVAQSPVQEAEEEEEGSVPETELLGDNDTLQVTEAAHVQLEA
In short: as §1

- TMT signal-to-noise ratio [1]: 101.527
- TMT signal-to-noise ratio [2]: 67.6684
Substance: adipsin
